# Experimental data as given in patent US20230265151A1, “GIP/GLP1 CO-AGONIST COMPOUNDS” (priority 2020, published 2023).
# *1 amine or outer side, *2 acyl side, *3 side chain or, on linkers, in order; H or OH if unused. Where no end group is shown, it is not given here. Side-chain parts run from the residue outwards. [ ]: non-standard residue; d: D form. The star is where a group is joined. Decanoyl(10-(4-HOOC-PhO)) = O=C(O)c1ccc(OCCCCCCCCCC(=O)*)cc1; αMePhe(2-F) = C[C@](N)(Cc1ccccc1F)C(=O)O; γGlu = O=C(O)[C@H](CCC(=O)[*:2])N[*:1]; C14 diacid = O=C(O)CCCCCCCCCCCCC(=O)*; αMeY = C[C@](N)(Cc1ccc(O)cc1)C(=O)O; αMeL = CC(C)C[C@](C)(N)C(=O)O; Orn = NCCC[C@H](N)C(=O)O; AEEA = NCCOCCOCC(=O)O; Aib = CC(C)(N)C(=O)O
# T1: human GIP receptor (human, UniProt P48546 22-466)
# T1 sequence (looked up): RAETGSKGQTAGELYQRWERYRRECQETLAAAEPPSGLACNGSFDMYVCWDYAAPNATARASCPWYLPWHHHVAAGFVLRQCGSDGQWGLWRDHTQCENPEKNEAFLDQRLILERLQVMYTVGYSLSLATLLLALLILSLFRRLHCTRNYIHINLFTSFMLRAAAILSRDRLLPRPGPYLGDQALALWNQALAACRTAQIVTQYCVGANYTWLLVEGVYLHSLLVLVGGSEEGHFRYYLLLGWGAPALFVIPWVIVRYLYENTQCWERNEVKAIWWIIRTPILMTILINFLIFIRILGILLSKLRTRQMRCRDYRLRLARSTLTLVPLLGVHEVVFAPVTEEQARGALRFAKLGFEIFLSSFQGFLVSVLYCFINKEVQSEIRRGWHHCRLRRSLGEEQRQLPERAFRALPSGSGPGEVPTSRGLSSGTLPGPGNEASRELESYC
# T2: human GIP receptor (human) (UniProt P48546)
# T2 sequence (looked up): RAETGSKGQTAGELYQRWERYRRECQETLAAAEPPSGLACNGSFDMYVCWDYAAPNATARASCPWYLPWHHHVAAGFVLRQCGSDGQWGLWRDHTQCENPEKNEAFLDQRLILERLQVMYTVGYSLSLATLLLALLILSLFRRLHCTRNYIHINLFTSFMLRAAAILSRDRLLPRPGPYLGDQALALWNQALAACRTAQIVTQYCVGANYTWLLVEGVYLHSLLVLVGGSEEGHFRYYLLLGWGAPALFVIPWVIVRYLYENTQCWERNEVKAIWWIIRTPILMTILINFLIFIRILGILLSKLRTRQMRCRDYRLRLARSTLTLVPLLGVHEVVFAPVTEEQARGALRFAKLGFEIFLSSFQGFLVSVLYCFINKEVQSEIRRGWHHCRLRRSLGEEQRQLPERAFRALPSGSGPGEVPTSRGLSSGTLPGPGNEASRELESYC
# B1: Example 326 (peptide)
# peptide: Y[Aib]EGT[αMePhe(2-F)]TSDV[Aib]I[αMeL]LD[Orn]K([AEEA-AEEA-γGlu-Decanoyl(10-(4-HOOC-PhO))])AQ[Aib]EFI[dE][αMeY]LIK([AEEA-AEEA-γGlu-Decanoyl(10-(4-HOOC-PhO))])GGPSSGAPPPS-NH2
# B2: Example 292 (peptide)
# peptide: YXEGTXTSDKXIXLDXKAQXEFIXXLIEGGPSSGAPPPS
# modifications: Y-Aib-EGT-αMeF(2F)-TSDK((2-[2-(2-Amino-ethoxy)-ethoxy]-acetyl)2-(γ-Glu)-CO-(CH2)10-CH3)-Aib-I-αMeL-LD-Orn-K((2-[2-(2-Amino-ethoxy)-ethoxy]-acetyl)2-(γ-Glu)-CO-(CH2)10-CH3)AQ-Aib-EFI-(D-Glu)-αMeY-LIEGGPSSGAPPPS-NH2
# B3: Example 298 (peptide)
# peptide: YXEGTXTSDXSIXLDXKAQXKFIXXLIXGGPSSGAPPPS
# modifications: Y-Aib-EGT-αMeF(2F)-TSD-4Pal-SI-αMeL-LD-Orn-K((2-[2-(2-Amino-ethoxy)-ethoxy]-acetyl)2-(γ-Glu)-CO-(CH2)10-CH3)AQ-Aib-K((2-[2-(2-Amino-ethoxy)-ethoxy]-acetyl)2-(γ-Glu)-CO-(CH2)10-CH3)FI-(D-Glu)-αMeY-LI-Orn-GGPSSGAPPPS-NH2
# B4: Example 301 (peptide)
# peptide: YXEGTXTSDYXIXLDXKAQXEFIXXLIKGGPSSGAPPPS
# modifications: Y-Aib-EGT-αMeF(2F)-TSDY-Aib-I-αMeL-LD-Orn-K((2-[2-(2-Amino-ethoxy)-ethoxy]-acetyl)2-(γ-Glu)-CO-(CH2)10-CH3)AQ-Aib-EFI-(D-Glu)-αMeY-LIK((2-[2-(2-Amino-ethoxy)-ethoxy]-acetyl)2-(γ-Glu)-CO-(CH2)10-CH3)GGPSSGAPPPS-NH2
# B5: Example 293 (peptide)
# peptide: YXEGTXTSDKSIXLDXKAQXEXIXXLIEGGPSSGAPPPS
# modifications: Y-Aib-EGT-αMeF(2F)-TSDK((2-[2-(2-Amino-ethoxy)-ethoxy]-acetyl)2-(γ-Glu)-CO-(CH2)10-CH3)SI-αMeL-LD-Orn-K((2-[2-(2-Amino-ethoxy)-ethoxy]-acetyl)2-(γ-Glu)-CO-(CH2)10-CH3)AQ-Aib-E-αMeF-I-(D-Glu)-αMeY-LIEGGPSSGAPPPS-NH2
# B6: Example 322 (peptide)
# peptide: YXEGTXTSDXXIXLDXKAQXKFIXXLIEGGPSSGAPPPS
# modifications: Y-Aib-EGT-αMeF(2F)-TSD-4Pal-Aib-I-αMeL-LD-Orn-K((2-[2-(2-Amino-ethoxy)-ethoxy]-acetyl)2-(γ-Glu)-CO-(CH2)10-CH3)AQ-Aib-K((2-[2-(2-Amino-ethoxy)-ethoxy]-acetyl)2-(γ-Glu)-CO-(CH2)10-CH3)FI-(D-Glu)-αMeY-LIEGGPSSGAPPPS-NH2
# B7: Example 300 (peptide)
# peptide: YXEGTXTSDYXIXLDXKAQXKFIXXLIEGGPSSGAPPPS
# modifications: Y-Aib-EGT-αMeF(2F)-TSDY-Aib-I-αMeL-LD-Orn-K((2-[2-(2-Amino-ethoxy)-ethoxy]-acetyl)2-(γ-Glu)-CO-(CH2)10-CH3)AQ-Aib-K((2-[2-(2-Amino-ethoxy)-ethoxy]-acetyl)2-(γ-Glu)-CO-(CH2)10-CH3)FI-(D-Glu)-αMeY-LIEGGPSSGAPPPS-NH2
# B8: Example 319 (peptide)
# peptide: YXEGTXTSDVXIXLDXKAQXKFIXXLIEGGPSSGAPPPS
# modifications: Y-Aib-EGT-αMeF(2F)-TSDV-Aib-I-αMeL-LD-Orn-K((2-[2-(2-Amino-ethoxy)-ethoxy]-acetyl)2-(γ-Glu)-(10-(4-carboxyphenoxy)decanoyl))AQ-Aib-K((2-[2-(2-Amino-ethoxy)-ethoxy]-acetyl)2-(γ-Glu)-(10-(4-carboxyphenoxy)decanoyl))FI-(D-Glu)-αMeY-LIEGGPSSGAPPPS-NH2
# B9: Example 318 (peptide)
# peptide: YXEGTXTSDVXIXLDXKAQXKFIXXLIEGGPSSGAPPPS
# modifications: Y-Aib-EGT-αMeF(2F)-TSDV-Aib-I-αMeL-LD-Orn-K((2-[2-(2-Amino-ethoxy)-ethoxy]-acetyl)2-(γ-Glu)-CO-(CH2)12-CO2H)AQ-Aib-K((2-[2-(2-Amino-ethoxy)-ethoxy]-acetyl)2-(γ-Glu)-CO-(CH2)12-CO2H)FI-(D-Glu)-αMeY-LIEGGPSSGAPPPS-NH2
# B10: Example 299 (peptide)
# peptide: YXEGTXTSDXSIXLDXKAQXXFIXXLIKGGPSSGAPPPS
# modifications: Y-Aib-EGT-αMeF(2F)-TSD-4Pal-SI-αMeL-LD-Orn-K((2-[2-(2-Amino-ethoxy)-ethoxy]-acetyl)2-(γ-Glu)-CO-(CH2)10-CH3)AQ-Aib-Orn-FI-(D-Glu)-αMeY-LIK((2-[2-(2-Amino-ethoxy)-ethoxy]-acetyl)2-(γ-Glu)-CO-(CH2)10-CH3)GGPSSGAPPPS-NH2
# B11: Example 302 (peptide)
# peptide: YXEGTXTSDYXIXLDXKAQXEFIXXLIEGGPSSGAPPPSK
# modifications: Y-Aib-EGT-αMeF(2F)-TSDY-Aib-I-αMeL-LD-Orn-K((2-[2-(2-Amino-ethoxy)-ethoxy]-acetyl)2-(γ-Glu)-CO-(CH2)10-CH3)AQ-Aib-EFI-(D-Glu)-αMeY-LIEGGPSSGAPPPSK((2-[2-(2-Amino-ethoxy)-ethoxy]-acetyl)2-(γ-Glu)-CO-(CH2)10-CH3)-NH2
# B12: Example 324 (peptide)
# peptide: YXEGTXTSDXXIXLDXKAQXEFIXXLIEGGPSSGAPPPSK
# modifications: Y-Aib-EGT-αMeF(2F)-TSD-4Pal-Aib-I-αMeL-LD-Orn-K((2-[2-(2-Amino-ethoxy)-ethoxy]-acetyl)2-(γ-Glu)-CO-(CH2)10-CH3)AQ-Aib-EFI-(D-Glu)-αMeY-LIEGGPSSGAPPPSK((2-[2-(2-Amino-ethoxy)-ethoxy]-acetyl)2-(γ-Glu)-CO-(CH2)10-CH3)-NH2
# B13: Example 325 (peptide)
# peptide: Y[Aib]EGT[αMePhe(2-F)]TSDV[Aib]I[αMeL]LD[Orn]K([AEEA-AEEA-γGlu-C14 diacid])AQ[Aib]EFI[dE][αMeY]LIK([AEEA-AEEA-γGlu-C14 diacid])GGPSSGAPPPS-NH2
# modifications: N-terminus assumed
# SMILES: CC[C@H](C)[C@H](NC(=O)[C@H](CC(C)C)NC(=O)[C@](C)(Cc1ccc(O)cc1)NC(=O)[C@@H](CCC(=O)O)NC(=O)[C@@H](NC(=O)[C@H](Cc1ccccc1)NC(=O)[C@H](CCC(=O)O)NC(=O)C(C)(C)NC(=O)[C@H](CCC(N)=O)NC(=O)[C@H](C)NC(=O)[C@H](CCCCNC(=O)COCCOCCNC(=O)COCCOCCNC(=O)CC[C@H](NC(=O)CCCCCCCCCCCCC(=O)O)C(=O)O)NC(=O)[C@H](CCCN)NC(=O)[C@H](CC(=O)O)NC(=O)[C@H](CC(C)C)NC(=O)[C@](C)(CC(C)C)NC(=O)[C@@H](NC(=O)C(C)(C)NC(=O)[C@@H](NC(=O)[C@H](CC(=O)O)NC(=O)[C@H](CO)NC(=O)[C@@H](NC(=O)[C@](C)(Cc1ccccc1F)NC(=O)[C@@H](NC(=O)CNC(=O)[C@H](CCC(=O)O)NC(=O)C(C)(C)NC(=O)[C@@H](N)Cc1ccc(O)cc1)[C@@H](C)O)[C@@H](C)O)C(C)C)[C@@H](C)CC)[C@@H](C)CC)C(=O)N[C@@H](CCCCNC(=O)COCCOCCNC(=O)COCCOCCNC(=O)CC[C@H](NC(=O)CCCCCCCCCCCCC(=O)O)C(=O)O)C(=O)NCC(=O)NCC(=O)N1CCC[C@H]1C(=O)N[C@@H](CO)C(=O)N[C@@H](CO)C(=O)NCC(=O)N[C@@H](C)C(=O)N1CCC[C@H]1C(=O)N1CCC[C@H]1C(=O)N1CCC[C@H]1C(=O)N[C@@H](CO)C(N)=O
# Columns and labels:
# Experiment in all cases: cell-based or functional assay
# human glucagon receptor = human glucagon receptor (human, UniProt P47871 26-477)
# human GIP receptor = target: T1, human GIP receptor
# human GLP-1 receptor = human GLP-1 receptor (human, UniProt P43220 24-463)
# [1] = target: human glucagon receptor (human) (UniProt P47871)
# hGLP-1R = hGLP-1R (Homo sapiens, UniProt P43220)
# [2] = target: T2, human GIP receptor (human)
Binder,cAMP EC50 (1.0% HSA) (human glucagon receptor),cAMP EC50 (1.0% HSA) (human GIP receptor),cAMP Emax (1.0% HSA) (human GIP receptor),cAMP EC50 (1.0% HSA) (human GLP-1 receptor),cAMP Emax (1.0% HSA) (human GLP-1 receptor),cAMP EC50 [1],cAMP EC50 (hGLP-1R),cAMP Emax (hGLP-1R),cAMP EC50 [2],cAMP Emax [2]
B1,> 9950 nM,4.62 nM,88.7%,26.1 nM,96.1%,> 9950 nM,0.186 nM,94.4%,0.0338 nM,102%
B2,> 9950 nM,0.416 nM,,4.35 nM,,> 9950 nM,0.0758 nM,104%,0.0062 nM,
B3,> 9950 nM,0.237 nM,95%,3.64 nM,,> 9950 nM,0.19 nM,106%,,97.4%
B4,> 9950 nM,0.919 nM,85.5%,12.9 nM,,> 9950 nM,0.175 nM,99.2%,0.0128 nM,97.4%
B5,> 9950 nM,0.987 nM,96.6%,10.7 nM,99.4%,> 9950 nM,0.102 nM,102%,0.00915 nM,102%
B6,> 9950 nM,0.617 nM,,8.09 nM,94.5%,> 9950 nM,0.144 nM,100%,0.00937 nM,101%
B7,> 9950 nM,1.25 nM,91.5%,19.6 nM,,> 9950 nM,0.194 nM,107%,0.0128 nM,102%
B8,> 9950 nM,3.35 nM,,28.1 nM,114%,> 9950 nM,0.18 nM,100%,0.0196 nM,98.1%
B9,> 9950 nM,5.42 nM,,28.7 nM,,> 9950 nM,0.219 nM,99.9%,0.0402 nM,106%
B10,> 9950 nM,0.204 nM,,2.58 nM,102%,> 9950 nM,0.126 nM,103%,0.0104 nM,101%
B11,> 9950 nM,0.453 nM,,6.55 nM,99.4%,> 9950 nM,0.0917 nM,103%,0.00916 nM,100%
B12,> 9950 nM,0.321 nM,,4.38 nM,99.4%,> 9950 nM,0.0647 nM,97.6%,0.00632 nM,101%
B13,> 9950 nM,3.96 nM,94.7%,23.5 nM,98.4%,> 9950 nM,0.225 nM,97.8%,0.0485 nM,104%
